Columns and labels:
MddM1 = tested on: T1, MddM1; assay: GC detection of DMS, Michaelis-Menten fit; type: biochemical, Mycolicibacterium poriferae; conditions: pH 9, 40 °C
T1 construct: full length (210 aa, ~23 kDa native), GST-tagged in pGEX-4T-1, expressed in E. coli BL21(DE3), glutathione Sepharose purified; no tag removal told

[1] = substrate: CS; assay: GC detection of DMS, Michaelis-Menten fit; type: biochemical, Thermobispora bispora; conditions: pH 8, 30 °C, SAM fixed at 1 mM, GST-tagged enzyme 2 µg
purified protein = substrate: C[S+](CC[C@H](N)C(=O)O)C[C@H]1O[C@@H](n2cnc3c(N)ncnc32)[C@H](O)[C@@H]1O; assay: purified protein; conditions: pH 8, 30 °C, MeSH as co-substrate fixed at 1 mM, methyl donor

Molecule: C[S+](CC[C@H](N)C(=O)O)C[C@H]1O[C@@H](n2cnc3c(N)ncnc32)[C@H](O)[C@@H]1O (some centres unmarked) [S-adenosine-methionine]
- Km (MddM1; MeSH as co-substrate fixed at 1 mM, methyl donor): 110 ± 50 µM

Molecule: CS [methanethiol]
- Km (MddM1; SAM fixed at 1 mM, GST-tagged enzyme 1 µg): 760 µM

B1: TbMddM2 (Thermobispora bispora DSM 43833) (protein)
chain: MSAADVLPVNHHADHPGFSGVIGTVIGLIFLLAGRPTARLAADLAAVGPGDRVADIGCGPGTAVREAARRGAQATGVDPAPVMLRWARMAGRGEAMEWREGTAERVPLPDGWATVWWSLATVHHWKDVEAGLREAYRVLAPGGRLLAMERQIAPGATGQASHGWTRRQADAFADHCRAAGFTDVTVTAHRAGRRDVWVVTATRP
- Km [1]: 0.22 mM
- Km (purified protein): 0.02 ± 0.01 mM
- kcat (purified protein): 0.05 ± 0.01 s⁻¹

— article PMC12904073, “Two Novel S‐methyltransferases Confer Dimethylsulfide Production in Actinomycetota” (Advanced Science, 2025)
